Here are results for 8 molecules from PMC5694952 (The EMBO Journal, 2016).

B2: chloroplast ribosomal protein uS5c (natural protein, UniProt Q9ST69 56-308, looked up)
chain: CIKKDDIDITFFEQDNPDEEITFDPPEKPEGYIPPRAVDEPPFESEEEIALAYEELYGAAYSGESLLGNDVYAMDSKIKKATGFGSKSKKEKIRDGFEENVVQVRRVTKVVKGGKHMRFRAIVVVGDKKGQVGVGVGKAKEVVSAVQKAAVDARRNIITVPMTKYLTFPHRNEADYGAARVMLRPAAPGTGVIAGGAVRTVLEMAGVENALGKQLGSNNALNNARATIVAVQTMRQFSDVARDRGIPMEELWK
B8: chloroplast ribosomal protein bL21c (natural protein, UniProt P24613 56-256, looked up)
chain: AKRRRFQEIPEELKAEFEEFQRPPNQKPQLSDVLPDDFQAPEPGTPEYNDIINQFLPKKGPPPPREEIFAVVVIGSRQYIVIPGRWIYTQRLKGATVNDKIVLNKVLLVGTKASTYIGTPIVTNAAVHAVVEEQLLDDKVIVFKYKKKKNYRRNIGHRQPITRIKITGITGYEDYPASTLEAEVEAKEEAEAEAEAEAVPV

Common to all, as to assay: cryo-EM structure
For assay [1], the target named is T1, chloroplast ribosomal protein bS1c (spinach (Spinacia oleracea) (endogenous …, UniProt P29344 42-411)).
T1 sequence (looked up): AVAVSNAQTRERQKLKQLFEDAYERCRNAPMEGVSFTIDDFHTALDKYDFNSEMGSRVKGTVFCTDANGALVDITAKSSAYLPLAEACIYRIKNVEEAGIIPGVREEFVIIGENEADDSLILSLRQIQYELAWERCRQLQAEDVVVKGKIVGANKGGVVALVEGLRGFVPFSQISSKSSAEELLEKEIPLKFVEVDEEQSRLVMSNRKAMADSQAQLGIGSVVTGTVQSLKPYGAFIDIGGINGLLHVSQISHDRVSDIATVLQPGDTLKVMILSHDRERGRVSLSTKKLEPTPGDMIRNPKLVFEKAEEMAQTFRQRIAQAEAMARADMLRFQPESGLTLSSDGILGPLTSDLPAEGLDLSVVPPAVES

Assay [2] deals with B2.
For assay [3], the target named is T2, chloroplast ribosomal protein bL20c (spinach (Spinacia oleracea) (endogenous …, UniProt P28803 1-128)).
T2 sequence (looked up): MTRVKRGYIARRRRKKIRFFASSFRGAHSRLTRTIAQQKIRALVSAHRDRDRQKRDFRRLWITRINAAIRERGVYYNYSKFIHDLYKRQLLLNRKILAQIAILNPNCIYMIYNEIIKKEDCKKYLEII

The target in assay [4] is B8.
For assay [5], the target named is T3, chloroplast ribosomal protein uL23c (spinach (Spinacia oleracea) (endogenous …, UniProt Q9LWB5 77-198)).
T3 sequence (looked up): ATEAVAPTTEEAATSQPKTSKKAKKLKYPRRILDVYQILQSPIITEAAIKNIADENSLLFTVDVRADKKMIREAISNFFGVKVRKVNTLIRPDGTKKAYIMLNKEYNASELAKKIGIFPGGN

Assay [6] addresses T4, chloroplast ribosomal protein uS13c (spinach (Spinacia oleracea) (endogenous …, UniProt P82163 48-172)).
T4 sequence (looked up): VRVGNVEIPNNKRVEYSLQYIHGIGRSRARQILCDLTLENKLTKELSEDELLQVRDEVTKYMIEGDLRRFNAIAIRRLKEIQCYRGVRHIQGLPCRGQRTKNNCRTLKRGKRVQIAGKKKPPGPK

Assay [7] has as its target T5, chloroplast ribosomal protein uL13c (spinach (Spinacia oleracea) (endogenous …, UniProt P12629 48-250)).
T5 sequence (looked up): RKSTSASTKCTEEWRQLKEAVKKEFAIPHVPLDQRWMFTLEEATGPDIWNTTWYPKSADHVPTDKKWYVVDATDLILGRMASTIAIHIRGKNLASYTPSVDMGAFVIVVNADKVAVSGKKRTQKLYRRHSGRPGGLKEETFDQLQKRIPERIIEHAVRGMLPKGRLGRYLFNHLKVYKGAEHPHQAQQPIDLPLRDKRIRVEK

B1: chloroplast ribosomal protein uS2c (natural protein, UniProt P08242 1-236, looked up)
chain: MTRRYWNINLEEMMEAGVHFGHGTRKWNPRMSPYISAKCKGIHIINLTRTARFLSEACDLVFDASSRGKQFLIVGTKNKAADSVARAAIRARCHYVNKKWLGGMLTNWSTTETRLHKFRDLRMEQTAGRLARLPKRDAAVVKRQLSHLQTYLGGIKYMTGLPDIVIIVDQQEEYTALRECITLGIPTICLIDTNCNPDLADISIPANDDAIASIRLILTKLVFAICEGRSSYIRNP
For B1, the binding result in assay [1] and in assay [2] was “binds” each time.

With B2, the binding result in assay [1] was “binds”.

B3: plastid-specific ribosomal protein cL38 (natural protein, UniProt P82411 48-116, looked up)
chain: SSRPQKKGTAHHMKTRPKKTARWDIKRGPAVYPPLPPLPAEWTIVSSAVDEADSSSSTTSSSAEIAQSA
As for B3, the binding result in assay [3] and in assay [4] was “binds” each time.

B4: chloroplast ribosomal protein uL29c (natural protein, UniProt P82248 59-168, looked up)
chain: VKKEDELKELRTKTNEQLNEEILQLKGELFMLRLQRSARENFKPSDFGRMRKRVARMLTVKREREIEQGVGKRLSRKLDKAWKRSIVVRPPPSLKKLQEKATAEAEAEKA
For the molecule B4, the binding result in assay [5] was “binds”.

B5: chloroplast ribosomal protein uS3c (natural protein, UniProt P09595 1-218, looked up)
chain: MGQKINPLGFRLGTTQSHYSLWFSQPKNYAEGLQEDQKIRDCIKNYVQKNTKTSSGVEGIARIEIQKRIDLIQVIIHMGFPKLLIENRPQGVEDLKINVQKELNCVNRKLNIAITRIAKPYGDPNILAEFIAGQLKSRVSFRKAMKKAIELTEQADTKGIQIQIAGRIDGKEIARIEWIREGRVPLQTIRAKIDYCAYTVRTIYGVLGIKIWIFMGEE
B5: the binding result in assay [2] is recorded as “binds”.

B6: plastid-specific ribosomal protein bTHXc (natural protein, UniProt P47910 55-101, looked up)
chain: GRGDRKTAKGKRFNHSFGNARPKNKNKGRGPPKAPIFPKGDPSQKED
As to B6, in assay [6], the binding result is given as “binds”.

B7: chloroplast ribosomal protein uL22c (natural protein, UniProt P09594 1-199, looked up)
chain: MGFFKKKEKKAEFDVFRLYGLHHPEPGKCDEITTRGYSISMSVDKARRVIDQIRGRSYAETLMILELMPYRACYPIFKLIYSAAANASHNKQFNKANLIISKAEVNKGITLKKVKPRARGRSYMIKRPTCHITIVLRDITHFDSYDKFLESLTPKKLIALLGLMSTGRRRELLCGRFRENHKIKSFLYKIALFKRYEVM
For the molecule B7, the binding result in assay [7] is listed as “binds”.

Take B8: the binding result in assay [7] was “binds”.
